Measurements from the RNAGym collection of RNA variant scans (doi:10.1093/nar/gkz1192).

B1: CPEB3 Ribozyme (parent)
chain: UAACAGGGGGCCACAGCAGAAGCGUUCACGUCGCAGCCCCUGUCAGAUUCUGGUGAAUCUGCGAAUUCUGCUGUAUAUCUC

Variants of: B1
Experiment: self-cleavage, relative activity (ratio to wild type); higher = more cleavage; in vitro, sequencing
How it was run: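 After error-prone PCR and barcoding, CPEB3 ribozyme mutant libraries were transcribed with T7 RNA polymerase at 37°C for 5 hours, then given 15 min with DNase I before an EDTA stop, and they cleaved during both steps. Reverse transcription with template switching preceded Illumina sequencing. Relative activity divides a variant's cleaved/total read fraction by the unmutated ribozyme's. At least 5 reads were required per variant, and three batches were averaged.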

| Variant | self-cleavage |
| --- | --- |
| UAACAGGGGGCCGCAGCAGAAGCGUUCACGUCGCAGCCCCUGUCAGAUUCUGGUGAAUCUGCGAAUUCUGCUGUAUAUCCC | 1.03 |
| UAACAGGGGGCCGCAGCAGAAGCGUUCACGUCGCAGCCCCUGUCAGAUUCUGGUGAAUCUGCGAAUUCUGCUGUAUAUCGC | 0.75 |
| UAACAGGGGGCCUCAGCAGAAGCGUUCUCGUCGCAGCCCCUGUCAGAUUCUGGUGAAUCUGCGAAUUCUGCUGUAUAUCUC | 1.01 |
| UAACAGGGGGCCUCAGCAGAAGCGUUCGCGUCGCAGCCCCUGUCAGAUUCUGGUGAAUCUGCGAAUUCUGCUGUAUAUCUC | 0.72 |
| UAACAGGGGGCCUCAGCAGAAGCGUUCCCGUCGCAGCCCCUGUCAGAUUCUGGUGAAUCUGCGAAUUCUGCUGUAUAUCUC | 0.64 |
| UAACAGGGGGCCUCAGCAGAAGCGUUCACGUCGCCGCCCCUGUCAGAUUCUGGUGAAUCUGCGAAUUCUGCUGUAUAUCUC | 0.69 |
| UAACAGGGGGCCUCAGCAGAAGCGUUCACGUCGCGGCCCCUGUCAGAUUCUGGUGAAUCUGCGAAUUCUGCUGUAUAUCUC | 1.3 |
| UAACAGGGGGCCUCAGCAGAAGCGUUCACGUCGCUGCCCCUGUCAGAUUCUGGUGAAUCUGCGAAUUCUGCUGUAUAUCUC | 0.75 |
| UAACAGGGGGCCGCAGCAGAAGCGUUCACGUCGCAGCCCCUGUCAGAUUCUGGUGAAUCUGCGAAUUCUGCUGUAUACCUC | 0.94 |
| UAACAGGGGGCCGCAGCAGAAGCGUUCACGUCGCAGCCCCUGUCAGAUUCUGGUGAAUCUGCGAAUUCUGCUGUAUAACUC | 1.01 |
| UAACAGGGGGCCGCAGCAGAAGCGUUCACGUCGCAGCCCCUGUCAGAAUCUGGUGAAUCUGCGAAUUCUGCUGUAUAUCUC | 0.31 |
| UAACAGGGGGCCGCAGCAGAAGCGUUCACGUCGCAGCCCCUGUCAGACUCUGGUGAAUCUGCGAAUUCUGCUGUAUAUCUC | 0.44 |
| UAACAGGGGGCCUCAGCAGAAGCGUUCACGUCGCAGCCCCUGUCCGAUUCUGGUGAAUCUGCGAAUUCUGCUGUAUAUCUC | 0.38 |
| UAACAGGGGGCCUCAGCAGAAGCGUUCACGUCGCAGCCCCUGUCGGAUUCUGGUGAAUCUGCGAAUUCUGCUGUAUAUCUC | 1.1 |
| UAACAGGGGGCCUCAGCAGAAGCGUUCACGUCGCAGCCCCUGUCUGAUUCUGGUGAAUCUGCGAAUUCUGCUGUAUAUCUC | 0.69 |
| UAACAGGGGGCCGCAGCAGAAGCGUUCACGUCGCAGCCCCUGUCAGAUUCAGGUGAAUCUGCGAAUUCUGCUGUAUAUCUC | 0.91 |
| UAACAGGGGGCCGCAGCAGAAGCGUUCACGUCGCAGCCCCUGUCAGAUUCCGGUGAAUCUGCGAAUUCUGCUGUAUAUCUC | 0.85 |

| Variant | self-cleavage |
| --- | --- |
| UAACAGGGGGCCGCAGCAGAAGCGUUCACGUCGCAGCCCCUGUCAGAUUCGGGUGAAUCUGCGAAUUCUGCUGUAUAUCUC | 0.84 |
| UAACAGGGGGCCUCCGCAGAAGCGUUCACGUCGCAGCCCCUGUCAGAUUCUGGUGAAUCUGCGAAUUCUGCUGUAUAUCUC | 0.88 |
| UAACAGGGGGCCUCUGCAGAAGCGUUCACGUCGCAGCCCCUGUCAGAUUCUGGUGAAUCUGCGAAUUCUGCUGUAUAUCUC | 1.05 |
| UAACAGGGGGCCUCGGCAGAAGCGUUCACGUCGCAGCCCCUGUCAGAUUCUGGUGAAUCUGCGAAUUCUGCUGUAUAUCUC | 0.69 |
| UAACAGGGGGCCGCAGCAGAAGCGUUCACGUCGCAGCCCCUGACAGAUUCUGGUGAAUCUGCGAAUUCUGCUGUAUAUCUC | 0.93 |
| UAACAGGGGGCCGCAGCAGAAGCGUUCACGUCGCAGCCCCUGGCAGAUUCUGGUGAAUCUGCGAAUUCUGCUGUAUAUCUC | 0.27 |
| UAACAGGGGGCCGCAGCAGAAGCGUUCACGUCGCAGCCCCUGCCAGAUUCUGGUGAAUCUGCGAAUUCUGCUGUAUAUCUC | 0.49 |
| UAACAGGGGGCCGCAGCAGAAGCGUUCACGACGCAGCCCCUGUCAGAUUCUGGUGAAUCUGCGAAUUCUGCUGUAUAUCUC | 0.5 |
| UAACAGGGGGCCGCAGCAGAAGCGUUCACGCCGCAGCCCCUGUCAGAUUCUGGUGAAUCUGCGAAUUCUGCUGUAUAUCUC | 0.45 |
| UAACAGGGGGCCGCAGCAGAAGCGUUCACGGCGCAGCCCCUGUCAGAUUCUGGUGAAUCUGCGAAUUCUGCUGUAUAUCUC | 0.51 |
| UAACAGGGGGCCGCAGCAGAAGCGUUCACGUCGCAGCCCCUGUCAGAUUCUGGGGAAUCUGCGAAUUCUGCUGUAUAUCUC | 0.76 |
| UAACAGGGGGCCGCAGCAGAAGCGUUCACGUCGCAGCCCCUGUCAGAUUCUGGCGAAUCUGCGAAUUCUGCUGUAUAUCUC | 0.92 |
| UAACAGGGGGCCGCAGCAGAAGCGUUCACGUCGCAGCCCCUGUCAGAUUCUGGAGAAUCUGCGAAUUCUGCUGUAUAUCUC | 1.07 |
| UAACAGGGGGCCGCAGCAGAAGCGUUCACGUCGCAGCCCCUGUCAGAUUCUGGUGAAUCUGCGAAUUCUGCGGUAUAUCUC | 0.46 |
| UAACAGGGGGCCGCAGCAGAAGCGUUCACGUCGCAGCCCCUGUCAGAUUCUGGUGAAUCUGCGAAUUCUGCCGUAUAUCUC | 0.8 |
| UAACAGGGGGCCGCAGCAGAAGCGUUCACGUCGCAGCCCCUGUCAGAUUCUGGUGAAUCUGCGAAUUCUGCAGUAUAUCUC | 0.54 |
| UAACAGGGGGCCUCAGCAGAAGCGUUCACGUCGCAGCCCCUGUCAGAUUCUGGUGAAUCUGCGAAUUCUGCUGUAUAUCUC | 1.17 |
